# Assay results: IntAct's records for PubMed 16319076
# B1: Profilin-2 (Mus musculus), Q9JJV2-1 (parent)
# chain: MAGWQSYVDNLMCDGCCQEAAIVGYCDAKYVWAATAGGVFQSITPVEIDMIVGKDREGFFTNGLTLGAKKCSVIRDSLYVDGDCTMDIRTKSQGGEPTYNVAVGRAGRVLVFVMGKEGVHGGGLNKKAYSMAKYLRDSGF
# partner: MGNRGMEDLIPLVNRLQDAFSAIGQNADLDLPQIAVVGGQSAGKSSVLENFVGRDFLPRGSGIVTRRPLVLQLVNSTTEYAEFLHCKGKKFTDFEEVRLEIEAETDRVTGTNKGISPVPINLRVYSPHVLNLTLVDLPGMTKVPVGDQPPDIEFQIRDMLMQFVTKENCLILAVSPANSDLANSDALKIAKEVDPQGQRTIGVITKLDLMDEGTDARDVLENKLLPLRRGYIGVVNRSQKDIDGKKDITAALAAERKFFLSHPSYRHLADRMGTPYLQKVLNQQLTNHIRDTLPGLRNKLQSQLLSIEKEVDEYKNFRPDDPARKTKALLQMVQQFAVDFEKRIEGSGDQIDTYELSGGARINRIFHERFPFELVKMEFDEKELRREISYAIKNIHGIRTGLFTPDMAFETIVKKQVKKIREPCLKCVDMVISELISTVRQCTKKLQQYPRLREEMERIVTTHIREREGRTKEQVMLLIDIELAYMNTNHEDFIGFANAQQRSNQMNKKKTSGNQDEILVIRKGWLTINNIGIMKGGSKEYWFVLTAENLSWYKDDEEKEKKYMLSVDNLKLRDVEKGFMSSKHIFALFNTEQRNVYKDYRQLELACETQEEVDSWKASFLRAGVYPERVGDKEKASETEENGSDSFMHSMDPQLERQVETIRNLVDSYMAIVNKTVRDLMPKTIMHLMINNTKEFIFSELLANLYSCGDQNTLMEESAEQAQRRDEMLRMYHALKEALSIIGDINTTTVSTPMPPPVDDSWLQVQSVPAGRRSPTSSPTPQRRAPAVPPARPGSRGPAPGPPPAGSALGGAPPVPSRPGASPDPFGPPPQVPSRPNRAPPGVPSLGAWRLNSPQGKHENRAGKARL
# Variants of: B1
# Details: with dyn1_mouse Dnm1, P39053
row,Variant,effect of a mutation on the interaction
1,S138D,decreasing interaction
